Experimental data from patent US20140134177A1 (ONCOMED PHARMACEUTICALS, published 2014).

B1: RSPO1-CD4TM (ligand)
chain: SRGIKGKRQRRISAEGSQACAKGCELCSEVNGCLKCSPKLFILLERNDIRQVGVCLPSCPPGYFDARNPDMNKCIKCKIEHCEACFSHNFCTKCKEGLYLHKGRCYPACPEGSSAANGTMECSSPAQCEMSEWSPWGPCSKKQQLCGFRRGSEERTRRVLHAPVGDHAACSDTKETRRCTVRRVPCPEGQKRRKGGQGRRENANRNLARKESKEAGAGSRRRKGQQQQQQQGTVGPLTSAGPAMALIVLGGVAGLLLFIGLGIFF
notes: domain: transmembrane domain; also called cell-surface RSPO1; RSPO1 transfected cells

How the values were obtained:
[1] = target: B1; test: FACS, Fc fusion on HEK 293 cells with RSPO1-CD4TM
Description: (§1) FIG. 7. RSPO1 Activates Beta-Catenin Signaling via Binding to LGR5. A) HEK 293 cells transiently transfected with RSPO1-CD4TM and GFP were incubated with LGR5-Fc, LRP6FL-Fc, LRP6E1-2-Fc, or FZD1-10-Fc as indicated. […] B) HEK 293 cells transiently transfected with […] and GFP were incubated in the presence of heparin with (in duplicate) RSPO1-Fc (top), FZD8-Fc (middle), or a FLAG antibody as a positive control (bottom). […] HEK 293 cells transiently transfected with FLAG-LGR5-CD4TM and GFP were incubated in the presence of heparin with RSPO1-Fc, RSPO2-Fc, RSPO3-Fc, RSPO4-Fc, FZD8-Fc, or a FLAG antibody as a positive control as indicated.
(§2) To determine the mechanism by which RSPO1 activates beta-catenin signaling, FACS analysis was used to assess binding between RSPO1 and LGR5. In certain embodiments, binding between soluble LGR5 and cell-surface RSPO1 was determined. A cell-surface RSPO1 protein was generated by ligating full-length human RSPO1 to the transmembrane domain of CD4 using standard recombinant DNA techniques (RSPO1-CD4TM). HEK 293 cells were transiently transfected RSPO1-CD4TM and GFP. After 48 hours, cells were suspended in ice cold PBS containing 2% FCS and then incubated on ice in the presence of LGR5-Fc, LRP6-ECD-Fc (containing the extracellular domain of human LRP6 fused to an Fc domain), LRP6E1-2-Fc (containing amino acids 1-629 of human LRP6 fused to an Fc domain), or various FZD-Fc constructs, including FZD1-10. […] Only a weak interaction between RSPO1 and the WNT co-receptor LRP6 was detected.

[2] = target: T1, FLAG-LGR5-CD4TM (human, UniProt P01730 397-418, limits assumed); test: FACS, Fc fusion on HEK 293 cells with FLAG-LGR5-CD4TM, with heparin
T1 construct: domain: transmembrane domain; also called cell-surface LGR5; LGR5 transfected cells; not shown: N-terminal FLAG tag
Description: In certain embodiments, binding between soluble RSPO1 and cell-surface LGR5 was determined. A variant cell-surface LGR5 protein was generated by ligating amino acids 22-564 of LGR5 to an N-terminal FLAG tag and to the transmembrane domain of CD4 using standard recombinant DNA techniques (FLAG-LGR5-CD4TM). HEK 293 cells were transiently transfected with FLAG-LGR5-CD4TM and GFP. After 48 hours, cells were suspended in ice cold PBS containing 2% FCS and heparin and then incubated on ice in the presence of RSPO1-Fc, FZD8-Fc, or a FLAG antibody as a positive control.

[3] = target: FZD7-Fc (UniProt O75084 33-170); test: FACS, Fc fusion on HEK 293 cells with RSPO1-CD4TM
Description: as §1, §2

[4] = target: T2, FZD1-Fc (UniProt Q9UP38 87-237); test: FACS, Fc fusion on HEK 293 cells with RSPO1-CD4TM
T2 construct: also called FZD1-10-Fc; FZD-Fc constructs; not shown: Fc
Description: as §1, §2

[5] = target: FZD2-Fc (UniProt Q14332 24-159); test: FACS, Fc fusion on HEK 293 cells with RSPO1-CD4TM
Description: as §1, §2

binding result [1]	Binder	other results
no binding	FZD4-Fc (Fc fusion, UniProt Q9ULV1 40-170, looked up, also called FZD1-10-Fc; FZD-Fc constructs; not shown: Fc) EEERRCDPIRISMCQNLGYNVTKMPNLVGHELQTDAELQLTTFTPLIQYGCSSQLQFFLCSVYVPMCTEKINIPIGPCGGMCLSVKRRCEPVLKEFGFAWPESLNCSKFPPQNDHNHMCMEGPGDEEVPLP	
no binding	FZD10-Fc (Fc fusion, UniProt Q9ULW2 21-154, looked up, also called soluble FZD10; FZD1-10-Fc; not shown: Fc) ISSMDMERPGDGKCQPIEIPMCKDIGYNMTRMPNLMGHENQREAAIQLHEFAPLVEYGCHGHLRFFLCSLYAPMCTEQVSTPIPACRVMCEQARLKCSPIMEQFNFKWPDSLDCRKLPNKNDPNYLCMEAPNNG	
no binding	FZD8-Fc (Fc fusion, UniProt Q9H461 28-158, looked up, also called soluble FZD8; FZD1-10-Fc; not shown: Fc) ASAKELACQEITVPLCKGIGYNYTYMPNQFNHDTQDEAGLEVHQFWPLVEIQCSPDLKFFLCSMYTPICLEDYKKPLPPCRSVCERAKAGCAPLMRQYGFAWPDRMRCDRLPEQGNPDTLCMDYNRTDLTT	binding result [2]: no binding
	B1	binding result [3]: no binding; binding result [4]: no binding; binding result [5]: no binding
no binding	FZD6-Fc (Fc fusion, UniProt O60353 19-146, looked up, also called FZD1-10-Fc; FZD-Fc constructs; not shown: Fc) HSLFTCEPITVPRCMKMAYNMTFFPNLMGHYDQSIAAVEMEHFLPLANLECSPNIETFLCKAFVPTCIEQIHVVPPCRKLCEKVYSDCKKLIDTFGIRWPEELECDRLQYCDETVPVTFDPHTEFLGP	
no binding	FZD3-Fc (Fc fusion, UniProt Q9NPG1 23-143, looked up, also called FZD1-10-Fc; FZD-Fc constructs; not shown: Fc) HSLFSCEPITLRMCQDLPYNTTFMPNLLNHYDQQTAALAMEPFHPMVNLDCSRDFRPFLCALYAPICMEYGRVTLPCRRLCQRAYSECSKLMEMFGVPWPEDMECSRFPDCDEPYPRLVDL	
no binding	FZD5-Fc (Fc fusion, UniProt Q13467 27-157, looked up, also called FZD1-10-Fc; FZD-Fc constructs; not shown: Fc) ASKAPVCQEITVPMCRGIGYNLTHMPNQFNHDTQDEAGLEVHQFWPLVEIQCSPDLRFFLCSMYTPICLPDYHKPLPPCRSVCERAKAGCSPLMRQYGFAWPERMSCDRLPVLGRDAEVLCMDYNRSEATT	
no binding	FZD9-Fc (Fc fusion, UniProt O00144 23-159, looked up, also called FZD1-10-Fc; FZD-Fc constructs; not shown: Fc) LEIGRFDPERGRGAAPCQAVEIPMCRGIGYNLTRMPNLLGHTSQGEAAAELAEFAPLVQYGCHSHLRFFLCSLYAPMCTDQVSTPIPACRPMCEQARLRCAPIMEQFNFGWPDSLDCARLPTRNDPHALCMEAPENA	
